Data: PMC8569584

Key:
[1] = biological target: PAC-1; experiment: PAC-1 binding to transfected HEK293FT cells (normalized MFI); settings: 1 mM Ca/Mg; parent: est. 4; read off a plot
[2] = biological target: mAb KIM127; experiment: mAb binding to transfected HEK293FT cells (MFI normalized to integrin expression); settings: read off a plot
[3] = biological target: mAb m24; experiment: as above; settings: read off a plot
[4] = biological target: human ICAM-1 with a C-terminal Fc tag of human IgG1 (UniProt P05362); experiment: ICAM-1 binding to transfected HEK293FT cells (MFI normalized to integrin expression); settings: 1 mM CaCl2 plus 1 mM MgCl2 (Ca/Mg), read off a plot
[5] = 1 mM CaCl2 plus 1 mM MnCl2 (Ca/Mn), parent: est. 200
[6] = 1 mM CaCl2 plus 1 mM MnCl2 (Ca/Mn), parent: est. 230

Row | response (normalized MFI) [1] | response (normalized MFI) ([2]; 1 mM Ca/Mg, parent: est. 80) | response (normalized MFI) [2, 5] | response (normalized MFI) [3, 6] | Substance | further results
1 | 150 | – | – | – | αIIb WT + β3 WT αIIb:L959C; αIIb:G991C | –
2 | – | – | – | – | αL/β2 WT αL:FFAA (GFFKR to GAAKR) | response (normalized MFI) ([2]; 1 mM Ca/Mg, parent: est. 18): 80; response (normalized MFI) ([2]; 1 mM CaCl2 plus 1 mM MnCl2 (Ca/Mn), parent: est. 44): 200; response (normalized MFI) ([3]; 1 mM CaCl2 plus 1 mM MnCl2 (Ca/Mn), parent: est. 58): 230; response (normalized MFI) ([4]; parent: est. 5): 60
3 | 11 | – | – | – | αIIb WT + β3 WT αIIb:L959C; αIIb:R995C; β3:P688C | –
4 | – | 30 | 110 | 140 | integrin αLβ2 with the αL-GFFKR to GAAKR mutation and wild-type β2 (from UniProt P20701;P05107) β2:I693P | response (normalized MFI) ([3]; 1 mM Ca/Mg, parent: est. 98): 33
5 | – | 120 | 210 | 210 | integrin αLβ2 with the αL-GFFKR to GAAKR mutation and wild-type β2 (from UniProt P20701;P05107) β2:L692P | response (normalized MFI) ([3]; 1 mM Ca/Mg, parent: est. 98): 160
6 | 37 | – | – | – | αIIb WT + β3 WT αIIb:L959C; αIIb:F993C | –
7 | 34 | – | – | – | αIIb WT + β3 WT αIIb:L959C; αIIb:F992C | –
8 | – | – | – | – | integrin αLβ2 with the αL-GFFKR to GAAKR mutation and wild-type β2 (from UniProt P20701;P05107) β2:I698P | response (normalized MFI) ([4]; parent: est. 60): 84
9 | 110 | – | – | – | αIIb WT + β3 WT αIIb:L959C; αIIb:R995C | –
10 | 3 | – | – | – | αIIb WT + β3 WT αIIb:L959C; αIIb:F992C; β3:P688C | –
11 | – | 60 | 170 | 200 | integrin αLβ2 with the αL-GFFKR to GAAKR mutation and wild-type β2 (from UniProt P20701;P05107) β2:I690P | response (normalized MFI) ([3]; 1 mM Ca/Mg, parent: est. 98): 67
12 | 25 | – | – | – | αIIb WT + β3 WT αIIb:L959C; αIIb:K994C | –
13 | 3 | – | – | – | αIIb WT + β3 WT αIIb:L959C; αIIb:F993C; β3:P688C | –
14 | – | 31 | 120 | 180 | integrin αLβ2 with the αL-GFFKR to GAAKR mutation and wild-type β2 (from UniProt P20701;P05107) β2:V691P | response (normalized MFI) ([3]; 1 mM Ca/Mg, parent: est. 98): 30
15 | 4 | – | – | – | αIIb WT + β3 WT αIIb:L959C; αIIb:G991C; β3:P688C | –
16 | 3 | – | – | – | αIIb WT + β3 WT αIIb:L959C; αIIb:K994C; β3:P688C | –
17 | 6 | – | – | – | αIIb WT + β3 WT β3:P688C | –
18 | – | 91 | 190 | 220 | integrin αLβ2 with the αL-GFFKR to GAAKR mutation and wild-type β2 (from UniProt P20701;P05107) β2:V699P | –
19 | – | 52 | 180 | 260 | integrin αLβ2 with the αL-GFFKR to GAAKR mutation and wild-type β2 (from UniProt P20701;P05107) β2:L696P | response (normalized MFI) ([3]; 1 mM Ca/Mg, parent: est. 98): 75
